No end group written: not given here.
Tested on: brain punch homogenate from the A2 region
Type: biochemical, dog
Settings: pH 7.5
Source text: To study the metabolism of angiotensin in brain punch homogenates, ^125 I-labelled Ang I and Ang II (New England Nuclear, Boston, Mass., USA) were purified initially to remove the peptidase inhibitor trasylol by reverse phase high performance liquid chromatography (HPLC) using a Nova-Pak C column (Waters Associates, Milford, Mass., USA). Peptides were eluted isocratically with 33.6% acetonitrile (Burdick and Jackson, American Scientific Products, Columbus, Ohio, USA) in 0.13% heptafluorbutyric acid (HFBA; Sequenal grade, Pierce, Rockford, Ill., USA) at a flow rate of 1 ml/min. The effluent (0.25 ml/fraction) was collected in tubes precoated with bovine serum albumin (BSA; Pentex, Miles Scientific, Naperville, Ill., USA). After evaporation in a vacuum centrifuge (Savant, Farmingdale, N.Y., USA), the purified peptides were redissolved in water.
The metabolism of ^125 I-Ang I and ^125 I-Ang II was studied by incubating 10 μl of brain homogenates with 190 μl of an assay solution containing 50 pM labelled standards in 20 mM Tris HCl buffer, pH 7.5, and 0.01% BSA for 2 to 15 minutes at 37° C. The reactions were stopped by the addition of 100 μl of 32% acetonitrile containing 0.13% HFBA, followed by centrifugation at 18,000 g for 2 minutes. […]

^125 I-Ang II: 125I-labelled Ang II used as substrate (DRVYIHPF; also: 125I label; UniProt P01019 25-32, looked up)
major / primary metabolic product of the labelled peptide: Ang-(1-7)
